Biological target: the molecule itself
Experiment: SEC

B1: IBV-N218-329, recombinant C-terminal domain (residues 218-329) of the IBV nucleocapsid protein (domain or fragment, UniProt P69596 218-329, looked up)
chain: KADEMAHRRYCKRTIPPNYRVDQVFGPRTKGKEGNFGDDKMNEEGIKDGRVTAMLNLVPSSHACLFGSRVTPKLQLDGLHLRFEFTTVVPCDDPQFDNYVKICDQCVDGVGT
**Q.** With B1 as the protein, how does the “stoichiometry N” value read?
**A.** 2

— article PMC7126683 (Structure (London, England : 1993), 2005)
